Measurements from paper PMC9276969.

Molecular target: V5-tagged L. vannamei STAT (Litopenaeus vannamei)
Assay: native gel or EMSA; S2 cells co-transfected with pAc5.1-STAT and pAc5.1-PTPN6 or pAc5.1-GFP (control); lysed in Pierce IP Lysis buffer at 48 h; 10% native PAGE, Western blot with antibody against shrimp STAT; dimer and monomer bands

stoichiometry N: 2
Substance: V5-tagged L. vannamei STAT (natural protein)
